doi:10.1101/2020.02.28.970301, “Picomolar affinity antagonist and sustained signaling agonist peptide ligands for the adrenomedullin and calcitonin gene-related peptide receptors” (bioRxiv, 2020)

Biological target: T1, CLR ECD (29-144) as it stands in MBP-RAMP2.55-140[L106R]-(GSA)3-CLR.29-144-H6 (human, UniProt Q16602 29-144)
T1 construct: calcitonin receptor-like receptor (CLR), human, extracellular domain, residues 29-144; joined to m5 on one chain by the (GSA)3 linker in the crystallised fusion m4; source: E. coli, purified (as part of the fusion m4); not shown: His6, C-terminal, kept
T1 sequence (Q16602 29-144, stated change not applied): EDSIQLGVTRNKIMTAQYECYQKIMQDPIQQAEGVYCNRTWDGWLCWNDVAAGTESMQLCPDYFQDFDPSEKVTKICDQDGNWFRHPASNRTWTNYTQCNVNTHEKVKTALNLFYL
Assay: crystal structure; bacterially expressed MBP-RAMP2 ECD-(GSA)3-CLR ECD mixed with peptide 1:1.2; hanging drop, 20% PEG MME 5000, 0.1 M sodium HEPES pH 8.2, 150 mM sodium formate, 3% DMSO; 1.83 Å
Conditions: both partners purified

binding result: binds
B1: RAMP2 ECD (55-140, L106R) as it stands in MBP-RAMP2.55-140[L106R]-(GSA)3-CLR.29-144-H6 (domain or fragment, human, UniProt O60895 55-140, looked up)
chain: GGTVKNYETAVQFCWNHYKDQMDPIEKDWCDWAMISRPYSTLRDCLEHFAERFDLGFPNPLAERIIFETHQIHFANCSLVQPTFSD
notes: receptor activity-modifying protein 2 (RAMP2), human, extracellular domain, residues 55-140; joined to m6 on one chain by the (GSA)3 linker in the crystallised fusion m4; source: E. coli, purified (as part of the fusion m4); not shown: MBP, N-terminal, kept
